Legend:
[1] = target: T1, human gp130 expressed endogenously on IMR-32/Stat3-luc cells (human, UniProt P40189 23-918); assay: FACS, 10 nM Ab, IMR-32/Stat3-luc cells, no hGP130.mmh
T1 construct: Endogenous gp130 of the human neuroblastoma line IMR-32
T1 sequence: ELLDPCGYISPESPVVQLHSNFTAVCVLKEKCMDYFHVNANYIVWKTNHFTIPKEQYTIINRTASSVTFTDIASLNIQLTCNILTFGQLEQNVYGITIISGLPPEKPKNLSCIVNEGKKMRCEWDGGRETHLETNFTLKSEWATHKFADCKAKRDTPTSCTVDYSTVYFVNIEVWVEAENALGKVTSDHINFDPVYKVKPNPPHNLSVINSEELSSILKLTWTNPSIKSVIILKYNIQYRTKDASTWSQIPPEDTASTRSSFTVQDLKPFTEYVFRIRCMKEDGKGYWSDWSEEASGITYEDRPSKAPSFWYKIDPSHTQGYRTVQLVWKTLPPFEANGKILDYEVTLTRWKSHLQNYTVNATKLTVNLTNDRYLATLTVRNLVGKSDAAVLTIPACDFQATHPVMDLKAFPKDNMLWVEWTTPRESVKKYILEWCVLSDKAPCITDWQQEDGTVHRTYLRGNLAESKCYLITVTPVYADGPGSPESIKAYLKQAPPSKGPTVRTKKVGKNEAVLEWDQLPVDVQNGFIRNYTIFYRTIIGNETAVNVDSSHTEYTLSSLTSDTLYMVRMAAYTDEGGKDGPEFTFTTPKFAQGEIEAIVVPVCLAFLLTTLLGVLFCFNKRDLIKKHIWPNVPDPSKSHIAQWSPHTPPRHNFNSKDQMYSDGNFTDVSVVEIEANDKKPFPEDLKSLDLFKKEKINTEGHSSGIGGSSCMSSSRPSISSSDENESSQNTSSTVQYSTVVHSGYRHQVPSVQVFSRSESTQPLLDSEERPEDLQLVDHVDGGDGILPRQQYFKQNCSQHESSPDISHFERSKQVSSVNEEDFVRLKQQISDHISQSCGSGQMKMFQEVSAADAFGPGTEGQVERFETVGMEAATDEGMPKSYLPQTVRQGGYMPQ
Text: (§1) In order to assess cell binding by anti-GP130 antibodies of the invention two cell lines were generated. One cell line generated was HEK293 cells stably over-expressing full length (FL) human gp130 (amino acids 1-918 of accession #P40189 with leucine at position 2 changed to valine, a natural variant) along with a luciferase reporter (Stat3-luciferase, Stat3-luc, SA Bioscience, #CLS-6028L). The cells were sorted twice using flow cytometry for high expression of gp130. It is known hereafter as HEK293/Stat3-luc/gp130-2 X Sort. IMR-32 cells (human Neuroblastoma, ATCC), were also evaluated for cell binding as these cells express gp130 endogenously and were used for bioassays. The cells used for binding were generated to stably express a luciferase reporter (Stat3-luciferase, Stat3-luc, SA Bioscience, #CLS-6028L), and are referred to hereafter as IMR-32/STAT3-Luc cells.
(§2) For the FACS analysis, 10 nM of the antibodies were used to stain 0.5×10⁶ cells/well of each cell type at 4° C. in PBS (without calcium and magnesium) containing 2% FBS for 30 minutes. IMR-32/STAT3-luc cells were incubated with 1 mg/mL mouse IgG for 30 minutes at 4° C. to block Fc receptors prior to adding the antibodies. To test whether the anti-gp130 antibody binding is specific for gp130 on the IMR-32 cells, antibodies were added to IMR-32/Stat3-luc cells with or without being pre-bound to 1000 nM of recombinant protein of the ecto-domain of human gp130 fused to myc-myc-his tag (hgp130.mmh) for 30 minutes at 25° C. […] Cells were fixed using BD CytoFix™ (Becton Dickinson, #554655) and analyzed on an IQue® (Intellicyt®) Flow Cytometer. Unstained and secondary antibody alone controls were also tested for all cell lines. The results were analyzed using ForeCyt® (IntelliCyt®) software to determine the geometric means of fluorescence for viable cells.

[2] = target: T2, full length (FL) human gp130 over-expressed on HEK293/Stat3-luc/gp130-2X Sort cells (human, UniProt P40189 23-918); assay: FACS, 10 nM Ab, HEK293/Stat3-luc/gp130-2X Sort cells
T2 sequence: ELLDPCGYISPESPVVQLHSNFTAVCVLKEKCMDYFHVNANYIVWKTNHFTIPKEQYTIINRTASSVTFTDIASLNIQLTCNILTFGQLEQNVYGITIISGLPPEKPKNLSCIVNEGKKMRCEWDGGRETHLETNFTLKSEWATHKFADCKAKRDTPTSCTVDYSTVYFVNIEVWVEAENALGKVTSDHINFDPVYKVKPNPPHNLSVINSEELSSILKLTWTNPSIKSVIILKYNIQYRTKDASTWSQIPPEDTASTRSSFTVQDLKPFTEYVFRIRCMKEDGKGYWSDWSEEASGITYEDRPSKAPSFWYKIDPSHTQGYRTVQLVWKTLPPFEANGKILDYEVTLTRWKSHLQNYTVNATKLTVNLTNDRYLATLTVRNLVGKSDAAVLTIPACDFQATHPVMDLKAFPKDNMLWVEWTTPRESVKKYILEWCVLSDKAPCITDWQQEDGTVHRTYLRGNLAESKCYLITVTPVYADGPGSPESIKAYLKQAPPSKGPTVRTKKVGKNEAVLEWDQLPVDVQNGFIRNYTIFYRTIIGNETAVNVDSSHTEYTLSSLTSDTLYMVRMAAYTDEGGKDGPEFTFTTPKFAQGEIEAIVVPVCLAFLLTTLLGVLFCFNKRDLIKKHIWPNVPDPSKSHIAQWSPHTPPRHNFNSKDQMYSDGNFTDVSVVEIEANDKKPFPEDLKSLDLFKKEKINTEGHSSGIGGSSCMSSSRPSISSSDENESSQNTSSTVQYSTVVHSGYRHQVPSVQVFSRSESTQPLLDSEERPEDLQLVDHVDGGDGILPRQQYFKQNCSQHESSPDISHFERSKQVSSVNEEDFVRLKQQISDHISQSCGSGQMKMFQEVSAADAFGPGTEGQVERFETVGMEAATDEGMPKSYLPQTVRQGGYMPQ
Text: as §1, §2

[3] = target: T3, human GP130 delta D1-D3 with C-terminal myc-myc hexahistidine tag (human, UniProt P40189 329-619); assay: Luminex, antigen captured on anti-myc beads
T3 construct: used as CHO supernatant; also called human GP130 delta D1-D3-MMH; GP130 Delta D1-D3 extracellular domain
T3 sequence (P40189 other isoform, or with tags, fused parts or gaps mutant limits assumed): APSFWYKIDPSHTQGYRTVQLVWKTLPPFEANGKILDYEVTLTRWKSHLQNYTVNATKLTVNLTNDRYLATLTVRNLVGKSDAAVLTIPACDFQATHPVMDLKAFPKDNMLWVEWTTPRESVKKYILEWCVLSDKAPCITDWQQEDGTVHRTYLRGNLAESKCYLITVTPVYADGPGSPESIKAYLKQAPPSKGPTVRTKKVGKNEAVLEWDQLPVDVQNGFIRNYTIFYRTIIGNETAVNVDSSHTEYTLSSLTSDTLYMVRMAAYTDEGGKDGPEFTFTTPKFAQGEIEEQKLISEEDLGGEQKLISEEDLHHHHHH
Protocol: (§3) Aliquots of microspheres with immobilized anti-myc monoclonal antibodies, prepared as described above, were added individually to 1 mL of the each of these protein supernatants and to 500 uL of purified GP130 protein. The microspheres were gently mixed, incubated for two hours at 25° C., washed twice with 1 mL of DBPS, centrifuged to remove the supernatant and finally resuspended in 1 mL of DPBS buffer. Forty eight μL of anti-myc IgG coupled microspheres from individual reactions with full length human GP130 and with each of the human GP130 domain proteins were withdrawn and mixed together in 3.6 mL of PBS+20 mg/mL BSA+0.05% sodium azide (blocking buffer).
(§4) From this mixed pool, 75 μL of microspheres were plated per well on a 96 well filter plate (Millipore, Cat. No: MSBVN1250) and mixed with 25 μL of individual anti-human GP130 monoclonal antibodies (0.5 or 5 μg/mL), incubated for two hours at 25° C. and then washed twice with 200 μL of DPBS with 0.05% Tween 20 (washing buffer). To detect and quantify the amounts of bound anti-GP130 antibody levels to individual microspheres, either 100 μL of 2.5 μg/mL R-Phycoerythrin conjugated goat F(ab′)2 anti-human kappa (Southern Biotech, Cat #2063-09) in blocking buffer, was added and incubated for 30 minutes at 25° C. After 30 minutes, the samples were washed twice with 200 μL of washing buffer and resuspended in 150 μL of wash buffer. The Median Fluorescence intensity (MFI) of the microspheres was measured in a Luminex Analyzer.

[4] = target: T4, human GP130 full length extracellular domain with C-terminal myc-myc-hexahistidine tag (human, UniProt P40189 23-619); assay: Luminex, antigen captured on anti-myc beads
T4 construct: Monomeric; also called human GP130-MMH; hGP130-mmH
Protocol: as §3, §4

[5] = target: T5, human GP130 delta D1 with C-terminal myc-myc hexahistidine tag (human, UniProt P40189 124-619); assay: Luminex, antigen captured on anti-myc beads
T5 construct: used as CHO supernatant; also called human GP130 delta D1-MMH; GP130 Delta D1 extracellular domain
T5 sequence (P40189 other isoform, or with tags, fused parts or gaps mutant limits assumed): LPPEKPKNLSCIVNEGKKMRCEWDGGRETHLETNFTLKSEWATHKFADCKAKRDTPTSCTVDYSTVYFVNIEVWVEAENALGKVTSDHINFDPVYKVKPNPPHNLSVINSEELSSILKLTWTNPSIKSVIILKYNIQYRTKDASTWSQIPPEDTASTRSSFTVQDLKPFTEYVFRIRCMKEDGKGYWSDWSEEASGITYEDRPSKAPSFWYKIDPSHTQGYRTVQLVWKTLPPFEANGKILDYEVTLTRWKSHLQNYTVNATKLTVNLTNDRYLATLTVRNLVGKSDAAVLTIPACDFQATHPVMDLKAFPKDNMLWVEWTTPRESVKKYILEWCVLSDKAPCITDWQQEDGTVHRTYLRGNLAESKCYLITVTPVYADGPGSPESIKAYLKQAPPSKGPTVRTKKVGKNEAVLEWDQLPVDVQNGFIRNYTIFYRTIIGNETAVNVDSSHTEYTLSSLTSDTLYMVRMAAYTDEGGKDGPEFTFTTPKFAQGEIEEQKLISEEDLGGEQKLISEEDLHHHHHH
Protocol: as §3, §4

Row | Binder | MFI - Normalized to Unstained Control [1] [ratio] | MFI - Normalized to Unstained Control [2] [ratio] | Luminex MFI signal [3] [MFI] | Luminex MFI signal [4] [MFI] | Luminex MFI signal [5] [MFI]
1 | MAb16669 (antibody, V domains shown, hIgG4 isotype control used) VH: EVQLVESGGGLVQPGGSLRLSCAASGFTFSSYAMNWVRQAPGKGLEWVSAISGSGDSTYYTDSVKGRFTISRDNSKNTLYLQMNTLRAEDTAVYYCAKEEIVMLVGATPGWFDPWGQGTLVTVSS VL: not shown | 6 | 53 | 15100 | 17600 | 12600
2 | MAb16614 (antibody, V domains shown, hIgG4 isotype control used) VH: QVQLVESGGGVVQPGGSLRLSCAASGFTFSTYDIHWVRQAPGKGLEWVAVISFDGSNRNYGDSVKGRFTISRDNSDNTLFLEMNNLRFEDTAVYYCAKEGYGVDFQHWGQGTLVTVSS VL: not shown | 7 | 94 | 56 | 18700 | 2900
3 | MAb16683 (antibody, V domains shown, hIgG4 isotype control used) VH: QVQLVESGGGLVKPGGSLRLSCAASGFTFSDYYMTWIRQTPGKGLDWVSYISSSGTNKYNADSVKGRFTISRDNAKNSLYLQMNSLRAEDTAVYYCVRDPPWGMDVWGQGTTVTVSS VL: not shown | 9 | 75 | 20900 | 15200 | 12000
4 | MAb16664 (antibody, V domains shown, hIgG4 isotype control used) VH: QVQLVQSGTEVKKPGSSVKVSCKASGGTFSTYPINWVRQAPGQGLEWMGGIIPIFGTASYAQKFQGRVAITTDESTSTAYMELNSLRSEDTAVYYCARERPNWGSNDYWGQGTLVTVSS VL: not shown | 7 | 45 | 419 | 19300 | 442
5 | MAb16665 (antibody, V domains shown, hIgG4 isotype control used) VH: QVQLVESGGGVVQPGRSLRLACAASGFTFRSYGMHWVRQAPGKGLEWVAVIWYDGSNKYYTDSVKGRFTISRDNSKNTLYLQMNSLRAEDTAMYYCAIDKWATVTTYLFDYWGQGTLVTVSS VL: not shown | 5 | 55 | 116 | 16300 | 119
6 | MAb16676 (antibody, V domains shown, hIgG4 isotype control used) VH: QVQLVQSGAEVMKPGASVKVSCRASGYTFSSYDINWVRQAPGQGLEWMGWISTATGNTNYPQKVQGRVTMTTDTSTNTAYMELRSLRSDDTAVYYCTREGNSKGWLDPWGQGTLVTVSS VL: not shown | 9 | 74 | 686 | 18100 | 364

Source: US20240158497A1 (published 2024)
